This note sets out measurements from PMC6351562, “Structure, function, and inhibition of drug reactivating human gut microbial β-glucuronidases” (Scientific Reports, 2019).

For this series, the system named is O=C(O)[C@H]1O[C@@H](Oc2ccc([N+](=O)[O-])cc2)[C@H](O)[C@@H](O)[C@@H]1O. In words: purified protein, by the assay type. As to conditions: other: pNPG as substrate, optimal pH 5.0, 37 °C.

In general, Km refers to the concentration of substrate that gives half-maximal velocity. One may read the kcat as the number of substrate molecules converted per active site and unit of time at saturation. What is called kcat/Km is the turnover number divided by the Michaelis constant. Regarding “Bacteroides fragilis GUS (BfGUS) (Bacteroides fragilis NCTC 9343)”, the Km amounted to 580 ± 90 µM, the kcat came out at 22 s⁻¹ and the catalytic efficiency (kcat/Km) came to 39000 M⁻¹ s⁻¹.
